This note sets out measurements from PMC11958688.

Assay in all cases: fluorescence polarisation; FITC-labelled peptide fixed at 4 nM, arrestin titrated (0-50 μM; 0-3.20 μM for C-tail_6P); 20 mM HEPES pH 7.4, 100 mM NaCl, 0.01% DDM; room temperature, 30 min; One Site–Total fit; triplicate
(In general: Polarisation of emitted light reports the rotation of a fluorescent probe.)

Experiment [1] has as its target NTSR1 C-tail peptide phosphorylated at Ser401/Ser403/Ser404 (human).
Experiment [2] addresses NTSR1 C-tail peptide with hexa-phosphorylation at Ser401/Ser403/Ser404 and Thr407/Ser409/Ser410 (human).
Experiment [3] has as its target NTSR1 C-tail peptide phosphorylated at Thr407/Ser409/Ser410 (human).

In general, Kd refers to the concentration at which binding is half-saturated. High values mean lower affinity, low ones higher affinity. Take “human βArr1 truncated at residue 382 (constitutively active variant) (from UniProt P49407 1-382) (domain or fragment)”: the Kd in experiment [1] is 5.11 µM; in experiment [2], 0.035 µM; in experiment [3] it was 3.77 µM.
